No end group written: not given here.
B1: amyloid fibril inhibitor protein RGTFEGKF-NH2 (SEQ ID NO: 1) (peptide)
peptide: RGTFEGKF-NH2
modifications: not fully specified; printed as RGTFEGKF-NH2
B2: truncated glycophorin A peptide GpA70-86 (SEQ ID NO: 158) (peptide)
peptide: EPEITLIIFGVMAGVIG
modifications: not fully specified
notes: 17-residue fragment of glycophorin A, residues 70-86, that forms fibrils; NMR samples were 13C-labelled at Gly79, Gly83 or the Met81 methyl; also called truncated GpA; glycophorin A transmembrane peptide fragment

Tests used:
[1] = biological target: Aβ1-42 peptide (SEQ ID NO: 157) (Homo sapiens (Human), UniProt P05067 672-713); assay: cell-based or functional assay
[2] = biological target: the molecule itself; assay: 2D solid-state NMR (DARR) on fibrils, self-association

| Binder | thioflavin T fluorescence, inhibition of fibrillization at Aβ1-42:I1 molar ratio 1:20 [1] [%] | binding result [2] |
| --- | --- | --- |
| B1 | 70 | – |
| B2 | – | binds |
